B1: TTC32 (parent)
chain: YSAYIRRCACAASSDESPGSKCSP
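Also: lentivirally expressed fusions sorted by FACS into six bins by GFP to DsRed ratio, PSI derived from sequencing read proportions per bin multiplied by bin number.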

In the data set the parent is B1. In words: protein stability index of a GFP-peptide fusion (GPS, HEK-293T) (PSI 1-6); higher = more stable. Particulars: c terminus: a fixed tail appended.
On to YSAYIRRCACALSSDESPGSKCSP [A12L], for which the protein stability index came out at 1.87.
In the case of YSAYIRRCACAISSDESPGSKCSP [A12I], the protein stability index came out at 1.78.
YSAYIRRCACANSSDESPGSKCSP [A12N]: the protein stability index stood at 2.33.
With YSAYIRRCACAASSDESPGSKCDP [S23D], the protein stability index is 2.46.
In the case of YSAYIRRCACAASSDESPGSKCNP [S23N], the protein stability index worked out at 2.17.
Regarding YSAYIRRCACAASSDESPGSKCWP [S23W], the protein stability index came to 2.53.
Take YSAYIRRCACAASSDESPGSKCLP [S23L]: the protein stability index was determined as 2.08.
As to YSAYIRRCACAASSDESPGSKCAP [S23A], the protein stability index amounted to 1.87.
As to YSAYIRRCACAASSDESPGSKCRP [S23R], the protein stability index came out at 2.44.
Regarding YSAYIRRCACAASSDESPGSKCCP [S23C], the protein stability index worked out at 2.26.
Consider YSAYIRRCACAASSDESPGSKCGP [S23G], for which the protein stability index came to 2.08.
For the variant YSAYICRCACAASSDESPGSKCSP [R6C], the protein stability index is 2.26.
As to YSAYIMRCACAASSDESPGSKCSP [R6M], the protein stability index is 1.33.
For the variant YSAYIKRCACAASSDESPGSKCSP [R6K], the protein stability index was found to be 1.97.
Regarding YSAYIARCACAASSDESPGSKCSP [R6A], the protein stability index was found to be 2.07.
As for YSAYIDRCACAASSDESPGSKCSP [R6D], the protein stability index was 3.62.
To YSAYDRRCACAASSDESPGSKCSP [I5D] belongs 3.16; to YSAYARRCACAASSDESPGSKCSP [I5A], 1.86.
YSAYWRRCACAASSDESPGSKCSP [I5W]: the protein stability index worked out at 3.7.
To YSAYVRRCACAASSDESPGSKCSP [I5V] belongs 1.85.
Consider ISAYIRRCACAASSDESPGSKCSP [Y1I], for which the protein stability index turned out to be 1.72.
With SSAYIRRCACAASSDESPGSKCSP [Y1S], the protein stability index was 2.54.
Take YSAYIRNCACAASSDESPGSKCSP [R7N]: the protein stability index is 2.78.
To YSAYIRLCACAASSDESPGSKCSP [R7L] belongs 2.16; to YSAYIRQCACAASSDESPGSKCSP [R7Q], 2.48.
Take YSAYIRRCACAASCDESPGSKCSP [S14C]: the protein stability index amounted to 2.18.
Take YSAYIRRCACAASVDESPGSKCSP [S14V]: the protein stability index stood at 1.53.
In the case of YSAYIRRCACAASFDESPGSKCSP [S14F], the protein stability index was 1.45.
For YSAYIRRCACAASWDESPGSKCSP [S14W], the protein stability index was 1.92.
As to YSAYIRRCALAASSDESPGSKCSP [C10L], the protein stability index was 2.28.
As to YSAYIRRCANAASSDESPGSKCSP [C10N], the protein stability index amounted to 2.73.
For YSAKIRRCACAASSDESPGSKCSP [Y4K], the protein stability index is 2.5.
In the case of YSANIRRCACAASSDESPGSKCSP [Y4N], the protein stability index is 2.85.
As to YSAYIRRSACAASSDESPGSKCSP [C8S], the protein stability index was found to be 3.03.
Regarding YSAYIRRLACAASSDESPGSKCSP [C8L], the protein stability index is 2.38.
To YSAYIRRGACAASSDESPGSKCSP [C8G] belongs 2.87; to YSAYIRRCACAASSDESPGVKCSP [S20V], 1.79; to YSAYIRRCACAASSDESPGAKCSP [S20A], 2.13.
As to YSAYIRRCACAASSDESPGCKCSP [S20C], the protein stability index amounted to 3.96.
For YSAYIRRCACAASSDESPGFKCSP [S20F], the protein stability index came to 1.93.
For the variant YSAYIRRCACAASSDESPGWKCSP [S20W], the protein stability index turned out to be 1.85.
For YSAYIRRCFCAASSDESPGSKCSP [A9F] the value was 1.76; for YSAYIRRCTCAASSDESPGSKCSP [A9T], 2.14.
Turning to YSAYIRRCNCAASSDESPGSKCSP [A9N], the protein stability index was determined as 2.37.
As to YSAYIRRCACSASSDESPGSKCSP [A11S], the protein stability index is 1.95.
In the case of YSAYIRRCACTASSDESPGSKCSP [A11T], the protein stability index stood at 1.94.
On to YSAYIRRCACWASSDESPGSKCSP [A11W], for which the protein stability index came to 2.04.
For YSYYIRRCACAASSDESPGSKCSP [A3Y], the protein stability index worked out at 1.75.
For YSVYIRRCACAASSDESPGSKCSP [A3V] the value was 2.05; for YSPYIRRCACAASSDESPGSKCSP [A3P], 1.69.
With YSHYIRRCACAASSDESPGSKCSP [A3H], the protein stability index turned out to be 2.15.
Consider YSAYIRRCACAASSLESPGSKCSP [D15L], for which the protein stability index stood at 1.61.
As for YSAYIRRCACAASSVESPGSKCSP [D15V], the protein stability index came out at 1.51.
Consider YSAYIRRCACAASSAESPGSKCSP [D15A], for which the protein stability index is 3.53.
For the variant YSAYIRRCACAASSTESPGSKCSP [D15T], the protein stability index is 2.76.
As to YSAYIRRCACAASSDSSPGSKCSP [E16S], the protein stability index was determined as 1.94.
For YSAYIRRCACAASSDVSPGSKCSP [E16V] the value was 1.81; for YSAYIRRCACAASSDKSPGSKCSP [E16K], 1.53; for YSAYIRRCACAASSDPSPGSKCSP [E16P], 2.01.
To YSAYIRRCACAASSDDSPGSKCSP [E16D] belongs 2.06; to YSAYIRRCACAASSDESLGSKCSP [P18L], 2.22; to YSAYIRRCACAASSDESHGSKCSP [P18H], 2.21.
For the variant YSAYIRRCACAASSDESMGSKCSP [P18M], the protein stability index was found to be 1.68.
As for YSAYIRRCACAASSDESRGSKCSP [P18R], the protein stability index was 2.06.
For YSAYIRRCACAASSDESDGSKCSP [P18D] the value was 2.45; for YSAYIRRCACAASSDESWGSKCSP [P18W], 2.63.
As for YSAYIRRCACAASSDESCGSKCSP [P18C], the protein stability index worked out at 2.28.
To YSAYIRRCACAASSDESPGSKCSS [P24S] belongs 1.95; to YSAYIRRCACAASSDESPGSKCSM [P24M], 2.24; to YSAYIRRCACAASSDESPGSKCST [P24T], 2.03.
To YSAYIRRCACAASSDESPGSKCSF [P24F] belongs 1.35; to YSAYIRRCACAASSDESPGSICSP [K21I], 1.86; to YSAYIRRCACAASSDESPGSSCSP [K21S], 1.86.
Regarding YSAYIRRCACAASSDESPGSMCSP [K21M], the protein stability index was 3.54.
For the variant YSAYIRRCACAASSDESPGSHCSP [K21H], the protein stability index was 1.97.
For YSAYIRRCACAASSDESPGSKLSP [C22L] the value was 1.78; for YSAYIRRCACAASSDESPGSKYSP [C22Y], 1.65; for YSAYIRRCACAASSDESPGSKQSP [C22Q], 2.02.
For YSAYIRRCACAAVSDESPGSKCSP [S13V] the value was 1.49; for YSAYIRRCACAAKSDESPGSKCSP [S13K], 2.28; for YSAYIRRCACAAPSDESPGSKCSP [S13P], 1.89.
For YSAYIRRCACAAYSDESPGSKCSP [S13Y] the value was 2.13; for YSAYIRRCACAANSDESPGSKCSP [S13N], 1.87; for YSAYIRRCACAAFSDESPGSKCSP [S13F], 2.08.
Turning to YRAYIRRCACAASSDESPGSKCSP [S2R], the protein stability index was 1.82.
As for YHAYIRRCACAASSDESPGSKCSP [S2H], the protein stability index worked out at 4.15.
For YNAYIRRCACAASSDESPGSKCSP [S2N], the protein stability index worked out at 2.35.
Turning to YKAYIRRCACAASSDESPGSKCSP [S2K], the protein stability index amounted to 1.92.
For the variant YLAYIRRCACAASSDESPGSKCSP [S2L], the protein stability index turned out to be 2.
In the case of YSAYIRRCACAASSDESPNSKCSP [G19N], the protein stability index was determined as 2.24.
For YSAYIRRCACAASSDESPPSKCSP [G19P] the value was 2.31; for YSAYIRRCACAASSDELPGSKCSP [S17L], 1.78; for YSAYIRRCACAASSDEEPGSKCSP [S17E], 2.38.
To YSAYIRRCACAASSDEHPGSKCSP [S17H] belongs 1.85.

Source of the values: the supplement of paper PMC10567573.
